Where “and” joins values, the source holds several entries; their conditions need not be identical. Equal entries are not always repeated.
Legend:
Test in all cases: filter binding
[1] = biological target: T1, Cbf5;Nop10;Gar1;Nhp2 (Saccharomyces cerevisiae;Saccharomyces cerevisiae;Saccharomyces cerevisiae;Saccharomyces cerevisiae) (UniProt P33322+Q6Q547+P28007+P32495); conditions: 20 mM HEPES-KOH pH 7.4, 150 mM NaCl, 1.5 mM MgCl2, 10% glycerol, 30°C, 10 min; nitrocellulose filtration
T1 sequence 1: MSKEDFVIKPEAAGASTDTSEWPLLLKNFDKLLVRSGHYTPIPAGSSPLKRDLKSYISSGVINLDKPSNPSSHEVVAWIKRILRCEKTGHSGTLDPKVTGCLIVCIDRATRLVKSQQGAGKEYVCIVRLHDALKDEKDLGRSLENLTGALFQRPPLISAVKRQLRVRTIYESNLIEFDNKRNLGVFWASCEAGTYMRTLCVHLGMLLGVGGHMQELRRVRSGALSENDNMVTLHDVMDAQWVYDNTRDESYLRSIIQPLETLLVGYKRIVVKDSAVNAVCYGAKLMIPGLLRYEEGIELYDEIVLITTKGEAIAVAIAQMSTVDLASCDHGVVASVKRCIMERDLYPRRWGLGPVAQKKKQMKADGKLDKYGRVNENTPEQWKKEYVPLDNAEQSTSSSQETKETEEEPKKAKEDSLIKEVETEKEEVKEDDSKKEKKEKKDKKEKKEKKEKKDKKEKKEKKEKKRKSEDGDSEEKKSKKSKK
T1 sequence 2: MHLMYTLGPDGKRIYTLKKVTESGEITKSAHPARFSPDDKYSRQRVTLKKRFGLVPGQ
T1 sequence 3: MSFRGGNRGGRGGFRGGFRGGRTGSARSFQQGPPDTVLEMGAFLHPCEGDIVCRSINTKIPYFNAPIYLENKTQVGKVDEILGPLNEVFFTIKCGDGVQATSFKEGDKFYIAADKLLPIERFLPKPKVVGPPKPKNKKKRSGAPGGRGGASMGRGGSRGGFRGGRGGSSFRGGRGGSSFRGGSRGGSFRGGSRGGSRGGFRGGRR
T1 sequence 4: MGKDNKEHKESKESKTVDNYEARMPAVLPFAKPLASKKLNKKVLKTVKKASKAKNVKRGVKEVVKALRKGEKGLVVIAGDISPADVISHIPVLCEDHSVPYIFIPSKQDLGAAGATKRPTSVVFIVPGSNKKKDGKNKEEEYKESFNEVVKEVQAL

Utp23 = biological target: T2, Utp23 (Saccharomyces cerevisiae?) (UniProt Q12339); conditions: 20 mM HEPES-KOH pH 7.4, 150 mM NaCl, 1.5 mM MgCl2, 10% glycerol, 30°C, 10 min; nitrocellulose filtration
T2 sequence: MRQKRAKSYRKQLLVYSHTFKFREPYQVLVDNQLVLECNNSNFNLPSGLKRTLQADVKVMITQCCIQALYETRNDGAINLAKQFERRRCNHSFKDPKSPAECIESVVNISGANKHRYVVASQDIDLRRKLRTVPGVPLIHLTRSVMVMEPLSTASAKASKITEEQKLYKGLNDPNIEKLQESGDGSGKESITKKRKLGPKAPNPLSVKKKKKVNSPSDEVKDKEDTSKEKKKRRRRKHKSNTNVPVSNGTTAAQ

[2] = biological target: T3, Cbf5;Nop10;Gar1 (Saccharomyces cerevisiae;Saccharomyces cerevisiae;Saccharomyces cerevisiae) (UniProt P33322+Q6Q547+P28007); conditions: no Nhp2; single replicate; 20 mM HEPES-KOH pH 7.4, 150 mM NaCl, 1.5 mM MgCl2, 10% glycerol, 30°C, 10 min; nitrocellulose filtration
T3 sequence 1: T1 sequence 1
T3 sequence 2: T1 sequence 2
T3 sequence 3: T1 sequence 3

[3] = biological target: T4, Nhp2 (Saccharomyces cerevisiae) (UniProt P32495); conditions: Nhp2 alone, 20 mM HEPES-KOH pH 7.4, 150 mM NaCl, 1.5 mM MgCl2, 10% glycerol, 30°C, 10 min, nitrocellulose filtration
T4 sequence: T1 sequence 4

Substance	Kd [1]	Kd (Utp23) [µM]	Kd [2] [µM]	Kd ([3]; replicate 1) [µM]	Kd ([3]; replicate 2) [µM]
GGGAUUUUUUCGUGUACUGGAUUUCCAACGGGGCCUUUCCUUCUGGCUAACCUUGAGUCCUUGUGGCUCUUGGCGAACCAGGA [C2-ES6H1]	0.405 µM and 0.56 µM	–	–	–	–
GGGCCGACUAGGGAUCGGGUGGUGUUUUUUUAAUGACCCACUCGGCACCUUACGAGAAAUCAAAGUCUUUGGGU [H25/26]	0.092 µM	–	–	–	–
GGGUUAAUAGGGACGGUCGGGGGCAUCAGUAUUCAAUUGUCAGAGGUGAAAUUCUUGGAUUUAUUGAAGACUAACUACUGCGAAAGCAUUUGCCAAGGACGUUUUC [H22/23]	0.084 µM	0.0088	–	–	–
mitochondrial tRNAMet	0.746 µM	< 0.002	–	–	–
snR30 full-length	0.0009 µM	0.0175	0.0012	0.116	0.212
snR81	–	0.0047	–	–	–

— publication PMC9176245
